Measurements reported in patent US20240109974A1 (SHANDONG SIMCERE BIOPHARMACEUTICAL, published 2024).
Positions count from the first letter of the chain named.

T1: Cynomolgus TNFR2-His (Sino 90102-C08H) (cynomolgus monkey, UniProt A0A2K5VET2 132-366)
T1 construct: Bought protein; also called cynomolgus monkey TNFR2; recombinant cynomolgus monkey TNFR2 protein; not shown: His tag
T1 sequence: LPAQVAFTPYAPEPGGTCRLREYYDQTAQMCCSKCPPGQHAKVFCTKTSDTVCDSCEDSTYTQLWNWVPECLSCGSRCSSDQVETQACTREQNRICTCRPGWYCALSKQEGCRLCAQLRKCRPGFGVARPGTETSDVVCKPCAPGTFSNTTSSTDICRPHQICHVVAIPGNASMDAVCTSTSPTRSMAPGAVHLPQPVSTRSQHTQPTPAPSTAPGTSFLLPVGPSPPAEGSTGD

T2: Human TNFR2-His (Sino 10417-H08H) (human, UniProt P20333 23-257)
T2 construct: Bought protein; also called recombinant human TNFR2 protein; not shown: His tag
T2 sequence (looked up): T1 sequence with G16S, P36S, Q117P, H164N, A210E, G216S, V223M

T3: human TNFR2 on the surface of CHO-TNFR2 cells (human, UniProt P20333 23-461)
T3 construct: whole, on cells
T3 sequence (looked up): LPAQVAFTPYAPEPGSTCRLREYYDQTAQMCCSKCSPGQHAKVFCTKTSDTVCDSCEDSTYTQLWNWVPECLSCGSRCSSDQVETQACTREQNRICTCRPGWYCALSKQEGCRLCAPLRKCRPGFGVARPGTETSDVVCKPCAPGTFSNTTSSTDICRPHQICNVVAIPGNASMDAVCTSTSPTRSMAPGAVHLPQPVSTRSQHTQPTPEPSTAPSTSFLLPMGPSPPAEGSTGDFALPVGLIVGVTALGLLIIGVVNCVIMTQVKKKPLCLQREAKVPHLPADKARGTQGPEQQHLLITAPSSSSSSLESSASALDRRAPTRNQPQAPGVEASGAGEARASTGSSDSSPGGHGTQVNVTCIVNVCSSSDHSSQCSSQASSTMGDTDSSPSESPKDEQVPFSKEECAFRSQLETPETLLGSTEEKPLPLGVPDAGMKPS

B1: 001-WT (antibody, V domains shown)
VH: EVQLQESGGGLVQPGGSLNLSCAASGFAFSTYDLSWVRQTPEKRLEWVAYINNGGISTYYSDTVKGRFTISRDNAKNTLYLQMSSLKSEDTAMYYCVRGPFYGSANYFDYWGQGTTVTVSS
VL: EIVMTQSPASLSLSVGETVTITCRTSESIYSNLPWYQQKQGKSPQLLVYDATKLAEGVPSRFSGSESGTQYSLKINSLQSEDFGTYYCQHFWVTPWTFGGGTKLEIK
notes: Human-murine chimeric wild-type molecule; also called human-murine chimeric antibody WT of #001
B2: 001-Hu5 (antibody, V domains shown)
VH: B1 VH with Q5V, N19R, T40A, E42G, R44G, S84N, K87R, S88A, M93V, T116L
VL: DIQMTQSPSSLSASVGDRVTITCRTSESIYSNLPWYQQKPGKSPKLLVYDATKLAEGVPSRFSGSGSGTDYTLTISSLQPEDFATYYCQHFWVTPWTFGQGTKVEIK
notes: Humanized form of #001; also called VH1 + VL4
B3: 001-Hu4 (antibody, V domains shown)
VH: EVQLVESGGGLVQPGGSLRLSCAASGFAFSTYDLSWVRQAPGKGLEWVAYINNGGISTYYSDTVKGRFTISRDNAKNSLYLQMNSLRAEDTAVYYCVRGPFYGSANYFDYWGQGTLVTVSS
VL: B2 VL
notes: Humanized form of #001; also called VH2 + VL4
B4: 001-Hu3 (antibody, V domains shown)
VH: B3 VH with S78T
VL: B2 VL with S43A, V48I
notes: Humanized form of #001; also called VH1 + VL3
B5: 001-Hu2 (antibody, V domains shown)
VH: B3 VH
VL: B2 VL with V48I, Y71F
notes: Humanized form of #001; also called VH2 + VL2
B6: 001-Hu1 (antibody, V domains shown)
VH: B3 VH with S78T
VL: B2 VL with S43A, V48L
notes: Humanized form of #001; also called VH1 + VL1
B7: 224-WT (antibody, V domains shown)
VH: EVQLQESGPEIVKPGASVKLSCTASGFNNKDIYMHWVKQRPEQGLEWIGRIDPATGNTKHDPKFQDKATLSSDTSSNTAYLQFSSLTSEDTAVYYCAHSPYGDFGAMDYWGQGTTVTVSS
VL: DIQMTQSPAIMSASLGERVTMTCTASSSVSSNYLHWYQQKPGSSPKLWIYSTSNLPSGVPARFSGSGSGTSYSLTISSMEAEDAATYYCHQYHRSPWTFGGGTKLEIK
notes: Human-murine chimeric wild-type molecule; also called human-murine chimeric antibody WT of #224
B8: 219-WT (antibody, V domains shown)
VH: EVQLQESGAELVRPGASVKLSCKASGYSFTNYWMNWVKQRPGQGLEWIGMIHPSDTETRLNQNFKDKATLTVDKSSSTSYMQLSSPTSEDSAVYYCARGEGLGAARSVSMDYWGQGTTVTVSS
VL: DILMTQSPSSLSASLGDRVTISCRASQDISNYLNWYQQKPDGTVKVLIYYTAILHSGVPSRFSGSGSGTDYSLTISNLEQEDIATYFCQQGNTLPWTFGGGTKLEIK
notes: Human-murine chimeric wild-type molecule
B9: 219-Hu3 (antibody, V domains shown)
VH: QVQLVQSGAEVKKPGSSVKVSCKASGYSFTNYWMNWVRQAPGQGLEWMGMIHPSDTETRLNQNFKDRVTITADKSTSTAYMELSSLRSEDTAVYYCARGEGLGAARSVSMDYWGQGTLVTVSS
VL: B8 VL with L3Q, L15V, S22T, V46L, N77S, E79Q, Q80P, I83F, G100Q, L104V
notes: also called VH5 + VL5
B10: 219-Hu2 (antibody, V domains shown)
VH: B9 VH with R67K, V68A
VL: B8 VL with L3Q, L15V, S22T, V46L, N77S, E79Q, Q80P, I83F, G100Q, L104V
notes: also called VH4 + VL5
B11: 219-Hu1 (antibody, V domains shown)
VH: B9 VH with S16A, G44R, A72R, K74T, T76A
VL: B8 VL with L3Q, L15V, S22T, V46L, N77S, E79Q, Q80P, I83F, G100Q, L104V
notes: also called VH3 + VL5

Assays:
[1] = target: T1, Cynomolgus TNFR2-His (Sino 90102-C08H); experiment: SPR (Biacore T200), antibody captured on Protein A chip
Description: (§1) Biacore was used to detect the specific binding of a test anti-TNFR2 antibody to human and cynomolgus monkey TNFR2 proteins. In this experiment, a Protein A chip was used, the time required for the chip to capture the diluted antibody was determined by manual run, so that the Rmax of the saturated binding to an antigen was 50 RU. […] The affinity of an antibody for an antigen was determined by using multi-cycle dynamics. In each cycle, an antibody was injected and then a TNFR2 protein at a gradient concentration was injected, so that the antigen and the antibody underwent binding and dissociation processes. After each cycle, the Protein A chip was regenerated with Glycine pH 1.5 (removing the protein on the chip). The affinity KD of an antibody and an antigen was fitted with BIAcore T200 analysis software.

[2] = target: T2, Human TNFR2-His (Sino 10417-H08H); experiment: as above
Description: as §1

[3] = target: T2, Human TNFR2-His (Sino 10417-H08H); experiment: ELISA, human TNFR2-His coated
Description: (§2) The test humanized antibody against TNFR2 (as described in Example 1, the antibody was comprised of variable regions linked to IgG-Fc; the WT chimeric antibody also adopted the IgG-Fc structure) was subjected to 3.33-fold gradient dilution, loaded with 100 μl/well, and incubated with shaking at room temperature for 1.5 hours. The plate was washed, and then a working solution of murine anti-human IgG Fc-HRP (diluted at 1:10000) was added, loaded with 100 μl/well, and incubated with shaking at room temperature for 1.0 hour. The plate was washed again, and then the substrate TMB of HRP was added to develop colour. A stop solution was added to stop the reaction, and then a microplate reader (MD 13) was used to read the absorbance value. The binding curve of an antibody was drawn with antibody concentration as the abscissa and corresponding OD value as the ordinate, and fitted with four parameters (GraphPad Prism9) to calculate the EC50 value. The smaller the EC50 value, the stronger the binding ability of an antibody to human/cynomolgus monkey TNFR2. The binding effect of a humanized antibody was normalized to its corresponding human-murine chimeric antibody WT (see SEQ ID NOs: 38-43 for the sequence). The higher the percentage value, the better the binding effect of the humanized antibody. The results of binding of an anti-TNFR2 antibody to a human TNFR2 protein are shown in FIG. 1 and Table 4, and the results of binding of an anti-TNFR2 antibody to cynomolgus monkey TNFR2 are shown in FIG. 2 and Table 4.

[4] = target: T3, human TNFR2 on the surface of CHO-TNFR2 …; experiment: competition flow cytometry on CHO-TNFR2 cells, competitor human TNFα-biotin
Description: CHO stable cells highly expressing human TNFR2 were used for the experiment (the same as CHO-TNFR2 in Example 4). The CHO-TNFR2 cells were digested, washed twice with DPBS, then stained with Live/Dead (L/D) (20 minutes at room temperature), and plated at a density of 1×10⁵ cells/50 μl/well. A test anti-TNFR2 antibody was diluted to 6 μg/ml with a staining buffer as the starting concentration: the antibody was subjected to 3.33-fold gradient dilution, with a total of 7 concentration points. The diluted antibody was added to the plated cells at 50 μl/well, and the mixture was mixed well by gentle pipetting, and incubated at 4° C. for 30 minutes. Then the diluted 100 ng/ml of human TNFα-biotin was added at 100 μl/well, and the mixture was mixed well by gentle pipetting, and then incubated at 4° C. for 30 minutes. The mixture was washed twice with a staining buffer, and then 0.12 μg/ml PE-streptavidin (BioLegend, Cat #405204) was added at 100 μl/well; the resulting mixture was incubated at 4° C. for 30 minutes. The mixture was washed twice with a staining buffer, and then 150 μl of staining buffer was added to resuspend the cells; signals were detected by a flow cytometer (Thermo Attune NxT). The inhibitory curve of an antibody was drawn with antibody concentration as the abscissa and corresponding MFI value as the ordinate, and fitted with four parameters (GraphPad Prism9) to calculate the IC50 value. The smaller the IC50 value, the stronger the ability of an antibody to inhibit the binding of human TNFα to human TNFR2. The blocking effect of a humanized antibody was normalized to its corresponding human-murine chimeric WT antibody. The higher the percentage value, the better the inhibitory effect of the humanized antibody.

[5] = target: T1, Cynomolgus TNFR2-His (Sino 90102-C08H); experiment: ELISA, cynomolgus TNFR2-His coated
Description: as §2

Row | Binder | Kd [1] [nM] | koff [1] [s⁻¹] | kon [1] [M⁻¹ s⁻¹] | Kd [2] [nM] | koff [2] [s⁻¹] | kon [2] [M⁻¹ s⁻¹] | EC50 [3] [µg/mL] | IC50 [4] [µg/mL] | EC50 [5] [µg/mL]
1 | B1 | 0.252 | 0.000154 | 614000 | 0.235 | 0.000121 | 512000 |  |  | 
2 | B2 | 0.475 | 0.000175 | 369000 | 0.416 | 0.000115 | 277000 | 0.0102 | 0.093 | 0.00988
3 | B3 | 0.473 | 0.000167 | 354000 | 0.417 | 0.000113 | 270000 | 0.00894 | 0.087 | 0.00927
4 | B4 | 0.43 | 0.000155 | 361000 | 0.375 | 9.91e-05 | 265000 | 0.0101 | 0.085 | 0.0099
5 | B5 | 0.599 | 0.000164 | 273000 | 0.496 | 0.000107 | 215000 | 0.00956 | 0.101 | 0.00914
6 | B6 | 0.47 | 0.00016 | 340000 | 0.371 | 0.000108 | 291000 | 0.00986 | 0.087 | 0.00962
7 | B7 | 0.897 | 0.000409 | 456000 | 2.33 | 0.000405 | 174000 |  |  | 
8 | B8 | 1.14 | 0.000562 | 492000 | 0.554 | 0.000192 | 346000 |  |  | 
9 | B9 | 0.723 | 0.000399 | 552000 | 0.362 | 0.000146 | 403000 | 0.021 | 0.042 | 0.0127
10 | B10 | 0.681 | 0.000412 | 605000 | 0.34 | 0.000151 | 443000 | 0.0185 | 0.039 | 0.0113
11 | B11 | 0.532 | 0.000332 | 623000 | 0.354 | 0.000153 | 433000 | 0.0213 | 0.047 | 0.0148
